Results on 2 molecules are retold here after US20250388641A1 (CUGENE, published 2025).

Assay [1] has as its target T1, huIL-15Rβ-6His (human, UniProt P14784 27-240, limits assumed).
T1 construct: Coated on the ELISA plate; also called hull-15Rβ-6His; IL-15Rβ subunit
T1 sequence: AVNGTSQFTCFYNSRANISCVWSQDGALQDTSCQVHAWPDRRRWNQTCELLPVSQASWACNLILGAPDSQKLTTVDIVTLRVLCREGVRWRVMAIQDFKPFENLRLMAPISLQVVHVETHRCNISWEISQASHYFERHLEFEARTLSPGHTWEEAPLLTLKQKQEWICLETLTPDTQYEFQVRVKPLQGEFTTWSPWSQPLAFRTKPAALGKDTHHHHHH
Kind of assay: ELISA, huIL-15Rβ-6His coated on plate, anti-human IgG Fc-HRP detection. How it is done:
(§1) The binding activity was tested in ELISA assay. Briefly, Nunc Maxisorp (ThermoFisher) plates were coated overnight at 4° C. with hull-15Rβ-6His at 1 ug/well (100 μl/well) in bicarbonate buffer pH 9.4 (ThermoFisher). After washing 3 times with PBS/0.05% Tween20, plates were incubated with SuperBlock (300 μl/well) at room temperature for 2 hrs. to block nonspecific binding. After washing, IL-15 compounds each at 3-fold serial dilutions with blocking buffer were added to the plates (100 μl/well) and incubated at room temperature for 1 hr. After washing, the Fc fusions were detected by 1 hr. incubation at room temperature with a goat anti-human IgG Fc secondary antibody conjugated with horseradish peroxidase (HRP) at 1:5000 dilution in blocking buffer (ThermoFisher) (100 μl/well). After washing, TMB substrate (ThermoFisher) was added (100 μl/well). Plates were sealed and incubated 5-20 min at room temperature in dark. Reaction was stopped by adding 2N sulfuric acid (Ricca Chemical) (50 μL/well) and absorbance was read at 450-590 nm.
On the technique in general: An ELISA detects its analyte on a solid surface through an enzyme-linked reagent.

For assay [2], the target named is T1, huIL-15Rβ-6His. The assay can be described thus: ELISA binding EC50 relative to wild type P-0153. How it is done:
as §1

Assay [3] addresses T1, huIL-15Rβ-6His. Kind of assay: ELISA binding to IL-15Rβ, relative to wild type (repeats Table 3). As to the method:
as §1

The target in assay [4] is T1, huIL-15Rβ-6His. Kind of assay: ELISA binding EC50 relative to wild type (3.9 nM). As to the method: as §1

B1: P-0178, IL-15/IL-15Rα heterodimeric Fc fusion, IL-15i3 (… insertion after N95) (Fc fusion)
chain 1: DKTHTCPPCPAPEAAGAPSVFLFPPKPKDTLMISRTPEVTCVVVDVSHEDPEVKFNWYVDGVEVHNAKTKPREEQYNSTYRVVSVLTVLHQDWLNGKEYKCKVSNKALPAPIEKTISKAKGQPREPQVYTLPPCREEMTKNQVSLSCAVKGFYPSDIAVEWESNGQPENNYKTTPPVLDSDGSFFLVSKLTVDKSRWQQGNVFSCSVMHEALHNHYTQKSLSLSPGEPKSSDKTHTSPPSPNWVNVISDLKKIEDLIQSMHIDATLYTESDVHPSCKVTAMKCFLLELQVISLESGDASIHDTVENLIILANNSLSSNGNVTESGCKECEELEEKNGSSGSSGGSIKEFLQSFVHIVQMFINTS
chain 2: DKTHTCPPCPAPEAAGAPSVFLFPPKPKDTLMISRTPEVTCVVVDVSHEDPEVKFNWYVDGVEVHNAKTKPREEQYNSTYRVVSVLTVLHQDWLNGKEYKCKVSNKALPAPIEKTISKAKGQPREPQVCTLPPSREEMTKNQVSLWCLVKGFYPSDIAVEWESNGQPENNYKTTPPVLDSDGSFFLYSKLTVDKSRWQQGNVFSCSVMHEALHNHYTQKSLSLSPGEPKSSDKTHTSPPSPITCPPPMSVEHADIWVKSYSLYSRERYICNSGFKRKAGTSSLTECVLNKATNVAHWTTPSLKCIRDPALVHQRPAPP
As a reminder, the EC50 is the midpoint of the concentration-response curve. Low readings indicate greater potency, high ones weaker potency. As for B1, in assay [1], the half-maximal effective concentration (EC50) was 23.1 nM. The Fold change in assay [2] came to 36 fold.

B2: P-0181, IL-15/IL-15Rα heterodimeric Fc fusion, IL-15m3 (Q108S, D30T, V31Y, H31E) (Fc fusion)
chain 1: DKTHTCPPCPAPEAAGAPSVFLFPPKPKDTLMISRTPEVTCVVVDVSHEDPEVKFNWYVDGVEVHNAKTKPREEQYNSTYRVVSVLTVLHQDWLNGKEYKCKVSNKALPAPIEKTISKAKGQPREPQVYTLPPCREEMTKNQVSLSCAVKGFYPSDIAVEWESNGQPENNYKTTPPVLDSDGSFFLVSKLTVDKSRWQQGNVFSCSVMHEALHNHYTQKSLSLSPGEPKSSDKTHTSPPSPNWVNVISDLKKIEDLIQSMHIDATLYTESTYEPSCKVTAMKCFLLELQVISLESGDASIHDTVENLIILANNSLSSNGNVTESGCKECEELEEKNIKEFLQSFVHIVSMFINTS
chain 2: DKTHTCPPCPAPEAAGAPSVFLFPPKPKDTLMISRTPEVTCVVVDVSHEDPEVKFNWYVDGVEVHNAKTKPREEQYNSTYRVVSVLTVLHQDWLNGKEYKCKVSNKALPAPIEKTISKAKGQPREPQVCTLPPSREEMTKNQVSLWCLVKGFYPSDIAVEWESNGQPENNYKTTPPVLDSDGSFFLYSKLTVDKSRWQQGNVFSCSVMHEALHNHYTQKSLSLSPGEPKSSDKTHTSPPSPITCPPPMSVEHADIWVKSYSLYSRERYICNSGFKRKAGTSSLTECVLNKATNVAHWTTPSLKCIRDPALVHQRPAPP
Take B2: the “Fold change in binding EC50” value in assay [3] came to 1.4 fold. Further, in assay [1], the midpoint of the response, the EC50, lay at 5.57 nM. The molecule further returned a Fold change in assay [4] of 1.4 fold.
